Reference: US20240392251A1, “CULTURE MEDIUM AND CULTURE METHOD FOR LUNG CANCER EPITHELIAL CELLS, AND APPLICATION THEREOF” (PRECEDO PHARMACEUTICALS CO., LTD, priority 2021, published 2024)

Key:
[1] = tested on: lung cancer cells (No. B18); experiment: Effects of different factors added to basic medium BM on proliferation of primary lung cancer cells; assay type: cell-based, human; details: factor added to BM at the concentrations of Table 3; 12 days of culture; FIGS. 1A-1D
Procedure: (§1) Extracellular matrix gel (Matrigel®) (manufactured by Corning) was diluted with serum-free DMEM/F12 medium at a ratio of 1:100 to prepare an extracellular matrix diluent. The extracellular matrix diluent was added to a 48-well culture plate with 500 μl/well to completely cover the bottom of the wells of the culture plate. The culture plate was let stand for 1 hour in a 37° C. incubator. After 1 hour, the extracellular matrix diluent was removed to provide a Matrigel-coated plate.
Preparation of basic medium (abbreviated as BM): BM was prepared by adding 0.2 vol. % of Primocin (purchased from Invivogen, with a concentration of 50 mg/ml) to the commercial DMEM/F-12 medium to provide a final concentration of 100 μg/ml.
Next, different kinds and concentrations of additive factors (Table 3) were added to the basic medium (BM), so as to prepare culture mediums for lung cancer epithelial cells containing different additive components.
The culture mediums with different components were added at a volume of 500 μl/well to 48-well plates which were coated with extracellular matrix gel (Matrigel). Lung cancer cells (No. B18) isolated from lung cancer tissues according to the same method as described in Example 1 were inoculated at a cell density of 2×10^4 cells/cm^2 in the above-mentioned 48-well culture plates which were coated with Matrigel. […]

[2] = tested on: lung cancer epithelial cells (Sample No. B26); experiment: Effects of different concentrations of the additive factors on proliferation of primary lung cancer cells; assay type: cell-based, human; details: added to No. 8 medium lacking the factor; cell number ratio to Blank Control; FIGS. 3A-3H
Procedure: as §1, with “(Matrigel®)” for “(Matrigel®) (manufactured by Corning)”, “200” for “500”
No. 8 culture medium for primary lung cancer epithelial cells was prepared.
Lung cancer epithelial cells derived from cancer tissues were isolated from the cancer tissue of a lung cancer patient (Sample No. B26) using the same method as in Example 1. Next, lung cancer epithelial cells derived from cancer tissues were counted with a flow imaging counter (JIMBIO FIL, Jiangsu Jimbio Technology Co., Ltd.) to get the total number of cells. Then, the cells were inoculated at a density of 4×10^4 cells/cm^2 in a 48-well plate which was coated with Matrigel®. […] The centrifuged cell pellet was resuspended in the basic medium BM and the cells were counted with a flow imaging counter (JIMBIO FIL, Jiangsu Jimbio Technology Co., Ltd.) to get the total number of cells. […]

B1: epidermal growth factor: growth factor from Sino Biological Inc. (protein, UniProt P01133 23-1207, looked up)
Pro-epidermal growth factor: PQHWSCPEGTLAGNGNSTCVGPAPFLIFSHGNSIFRIDTEGTNYEQLVVDAGVSVIMDFHYNEKRIYWVDLERQLLQRVFLNGSRQERVCNIEKNVSGMAINWINEEVIWSNQQEGIITVTDMKGNNSHILLSALKYPANVAVDPVERFIFWSSEVAGSLYRADLDGVGVKALLETSEKITAVSLDVLDKRLFWIQYNREGSNSLICSCDYDGGSVHISKHPTQHNLFAMSLFGDRIFYSTWKMKTIWIANKHTGKDMVRINLHSSFVPLGELKVVHPLAQPKAEDDTWEPEQKLCKLRKGNCSSTVCGQDLQSHLCMCAEGYALSRDRKYCEDVNECAFWNHGCTLGCKNTPGSYYCTCPVGFVLLPDGKRCHQLVSCPRNVSECSHDCVLTSEGPLCFCPEGSVLERDGKTCSGCSSPDNGGCSQLCVPLSPVSWECDCFPGYDLQLDEKSCAASGPQPFLLFANSQDIRHMHFDGTDYGTLLSQQMGMVYALDHDPVENKIYFAHTALKWIERANMDGSQRERLIEEGVDVPEGLAVDWIGRRFYWTDRGKSLIGRSDLNGKRSKIITKENISQPRGIAVHPMAKRLFWTDTGINPRIESSSLQGLGRLVIASSDLIWPSGITIDFLTDKLYWCDAKQSVIEMANLDGSKRRRLTQNDVGHPFAVAVFEDYVWFSDWAMPSVMRVNKRTGKDRVRLQGSMLKPSSLVVVHPLAKPGADPCLYQNGGCEHICKKRLGTAWCSCREGFMKASDGKTCLALDGHQLLAGGEVDLKNQVTPLDILSKTRVSEDNITESQHMLVAEIMVSDQDDCAPVGCSMYARCISEGEDATCQCLKGFAGDGKLCSDIDECEMGVPVCPPASSKCINTEGGYVCRCSEGYQGDGIHCLDIDECQLGEHSCGENASCTNTEGGYTCMCAGRLSEPGLICPDSTPPPHLREDDHHYSVRNSDSECPLSHDGYCLHDGVCMYIEALDKYACNCVVGYIGERCQYRDLKWWELRHAGHGQQQKVIVVAVCVVVLVMLLLLSLWGAHYYRTQKLLSKNPKNPYEESSRDVRSRRPADTEDGMSSCPQPWFVVIKEHQDLKNGGQPVAGEDGQAADGSMQPTSWRQEPQLCGMGTEQGCWIPVSSDKGSCPQVMERSFHMPSYGTQTLEGGVEKPHSLLSANPLWQQRALDPPHQMELTQ
modifications: Pro-epidermal growth factor
- effect on cell proliferation (ratio of number of cells to that in basic medium BM) [1]: certain promoting effects on cell proliferation in specific concentration ranges
- amount in the culture medium, most preferably [2]: 20 ng/mL
